The source of these data is patent US20240228986A1, “ENGINEERED CELLS, ENZYMES, AND METHODS FOR PRODUCING CANNABINOIDS” (priority 2021, published 2024).

Numbering of substitutions follows the chain as printed.

Common to all, as to assay type: cell-based, Yarrowia
The subject of test [1] is divarinic acid. The test can be described thus: Unfused rMPTs and APTs, CBGVA/FCBGVA formation in vivo assay (Example 4). The following applies: 2 mM divarinic acid, 48 hour quench; for CBGVA / FCBGVA: 2% glucose, strain sCL-SE-0128. The protocol: (§1) As described below, plasmids pCL-SE-0380 (MPT4), pCL-SE-0337.MPT4, pCL-SE-0338.APT73.74, and pCL-SE-0338.APT73.77 were transformed into strain sCL-SE-0128. Multiple colonies per transformation were precultured for 48 h in YNB containing glucose (2%), casamino acids (0.5%), and MES (100 mM pH 6.5). Pre-culture was used to inoculate assay medium comprised of YNB containing glucose (2%), casamino acids (0.5%), MES (100 mM pH 6.5), and olivetolic acid or divarinic acid (2 mM). Cultures were quenched with equal volume of ethanol after 48 h total growth and assayed for CBG(V)A and FCBG(V)A. Averages and standard deviations were calculated from replicates.
(§2) Overnight YPD (10 g/L yeast extract, 20 g/L peptone, 2% dextrose) cultures were inoculated from glycerol stocks of the appropriate strain and grown at 30° C. with 250 rpm shaking. Once cultures had reached an OD600 of 4-6, cultures were centrifuged at 500×g for 5 min, supernatants were discarded, and cell pellets were resuspended in equal volume of water. Resuspended cells were centrifuged at 500×g for 5 min, supernatants were discarded, and cells were resuspended in a volume (75 μL×OD×Vculture) of transformation cocktail (45% PEG-400, 0.1 M LiAc, 0.1 M DTT, and 25 ug/100 μL SS Salmon Sperm DNA). For each transformation, >1 μg of plasmid DNA was added to 55 μL cells/transformation cocktail and vortexed for 2 s. Transformations were incubated at 39° C. for 1 h with 250 rpm shaking. Transformations were resuspended in 750 μL YPD with 1 M sorbitol and recovered at 30° C. overnight with 250 rpm shaking. The next day, transformations were centrifuged at 500×g for 5 min, supernatants were discarded, and cell pellets were resuspended in 750 YPD. Resuspended transformations were plated on YPD with appropriate selection or YNBD (6.71 g/L yeast nitrogen base+nitrogen, 0.5% casamino acids, 2% dextrose) agar plates and grown at 30° C. for 2 days. Individual colonies were patched onto YPD plates with appropriate selection or YNBD plates and grown at 30° C. overnight. Patches were used to inoculate 0.5 mL YPD with appropriate selection or YNBD precultures in 96 w blocks and grown at 30° C. for 24-48 h with 1000 rpm shaking. For assays, 0.5 mL YPD with appropriate selection or YNBD cultures containing substrate were inoculated with 2 μL from precultures and grown at 30° C. for 2-4 days with 1000 rpm shaking with 2% glucose added every 24 h. Assay cultures were quenched by addition of 0.5 mL ethanol with 0.2% formic acid and 0.5 mg/mL pentyl-benzoic acid. Precipitates were pelleted by centrifuging at 4600×g for 10 min and then 200 μL was transferred to fresh plates, sealed, and analyzed via HPLC.
(§3) All samples were quenched with equal volume of EtOH containing 0.2 mg/mL internal standard (3,5-Diisopropyl-2-hydroxybenzoic acid CAS #2215-21-6) centrifuged, and clarified solutions were analyzed by HPLC-MS
(§4) • Column: 2.1×50 mm COSMOCORE PBr (Nacalai USA, Inc.) • Mobile Phase: A; 0.1% formic acid in water, B; 0.1% formic acid in acetonitrile • Flow: 0.45 mL/min • Temp: % 50 Celsius • Gradient: 20%B at 0 min, 70%B at 2.3 min, 89% B at 4.2 min, 20% B at 4.3 min, 20%B at 6 min

Test [2] deals with olivetolic acid. The test can be described thus: Unfused rMPTs and APTs, CBGA/FCBGA formation in vivo assay (Example 4). The following applies: for CBGA / FCBGA / CBGA/FCB: 2 mM olivetolic acid, 48 h quench; for CBGA / FCBGA: 2% glucose, strain sCL-SE-0128; for CBGA/FCB: product ratio. As to the method:
as §1, §2, §3, §4

Test [3] concerns olivetolic acid. The test can be described thus: GPS-APT fusions, OA feed in vivo assay (Example 11). The protocol:
as §1, with “plasmids pCL-SE-0406, pCL-SE-0664, pCL-SE-0663, pCL-SE-0662,” for “plasmids”, “pCL-SE-0337.MPT21, pCL-SE-0337.MPT26,” for “pCL-SE-0337.MPT4, pCL-SE-0338.APT73.74,”, “pCL-SE-0337.MPT31” for “pCL-SE-0338.APT73.77”, “acid” for “acid or divarinic acid”, “CBGA” for “CBG(V)A”, “FCBGA.” for “FCBG(V)A.”
Soluble prenyl transferase APT73.77 was fused with GPS1.1 at the N- or C-terminus with different linkers creating the plasmids shown in Table 14. These fusion proteins were expressed and screened as described in Example 8 (olivetolic acid feed)
as §2, §3, §4

For test [4], the system named is olivetolic acid. The test can be described thus: MPT4.1 with and without GPS1.1 fusion vs MPT4 fusion, in vivo assay (Example 5). The following applies: 3 mM olivetolic acid, 48 h quench. The protocol: (§5) As described below, plasmids pCL-SE-0337.MPT4.1 and pCL-SE-0753 were transformed into strain sCL-SE-0128. Multiple colonies per transformation were precultured for 24 h in YNB containing glucose (2%), casamino acids (0.5%), and MES (100 mM pH 6.5). Pre-culture was used to inoculate assay medium comprised of YNB containing glucose (6%), casamino acids (0.5%), MES (100 mM pH 6.5), and olivetolic acid (3 mM). Cultures were quenched with equal volume of ethanol after 48 h total growth and assayed for CBGA and FCBGA. Averages and standard deviations were calculated from replicates.
as §2, §3, §4

Test [5] relates to olivetolic acid. The test can be described thus: MPT fusions with GPS1.1 vs unfused MPTs, OA feed (Example 8, Table 9). The following applies: 2 mM olivetolic acid, 48 h quench. The protocol: as §5, with “pCL-SE-0406, pCL-SE-0664, pCL-SE-0663, pCL-SE-0662, pCL-SE-0380 (MPT4), pCL-SE-0337.MPT21, pCL-SE-0337.MPT26,” for “pCL-SE-0337.MPT4.1”, “pCL-SE-0337.MPT31” for “pCL-SE-0753”, “48” for “24”, “(2%),” for “(6%),”, “(2” for “(3”
as §2, §3, §4

For test [6], the system named is divarinic acid. The test can be described thus: MPT fusions with GPS1.1 vs unfused MPTs, DVA feed (Example 9, Table 11). The following applies: 2 mM divarinic acid, 2% glucose, quenched after 48 h; strain sCL-SE-0128. The protocol: as §1, with “plasmids pCL-SE-0406, pCL-SE-0664, pCL-SE-0663, pCL-SE-0662,” for “plasmids”, “pCL-SE-0337.MPT21,” for “pCL-SE-0337.MPT4, pCL-SE-0338.APT73.74, and pCL-SE-0338.APT73.77”, “and” for “and olivetolic acid or”, “quenched” for “quenched with equal volume of ethanol”, “CBGVA” for “CBG(V)A”, “FCBGVA.” for “FCBG(V)A.”
as §2, §3, §4

Test [7] relates to olivetolic acid. The test can be described thus: Linkers for GPS1.1-MPT4 fusions, in vivo assay (Example 6). The conditions noted are these: 1 mM olivetolic acid, 72 h quench. As to the method:
As described in detail below, plasmids pCL-SE-0380 (MPT4), pCL-SE-0406, pCL-SE-0435, and pCL-SE-0437 were transformed into strain sCL-SE-0128. Four separate colonies per transformation were precultured for 24 h in YNB containing glycerol (2%), casamino acids (0.5%), and MES (100 mM pH 6.5). Pre-culture was used to inoculate assay medium comprised of YNB containing glycerol (2%), casamino acids (0.5%), MES (100 mM pH 6.5), and olivetolic acid (1 mM). Cultures were quenched after 72 h total growth by mixing with equal volume of EtOH. Enzymes produced CBGA and FCBGA. Averages and standard deviations were calculated from replicates.
However, sCL-SE-0128 expresses HMGR and GPS1.1 to increase intracellular GPP levels for prenylation of OA to CBGA. The plasmids that were transformed contain either a gene expressing a prenyl-transferase (pCL-SE-0380 (MPT4)) or a gene expressing a fusion between GPS1.1 and a prenyl-transferase with different linker sequences.
as §2, §3, §4

Setting [8] is: in words, between APT73 mutants.
[9] abbreviates: olivetolic acid feed as in Example 8, 48 h quench, strain sCL-SE-0128.
Setting [10] is: 2% glycerol, strain sCL-SE-0128.

B1: APT73.74: recombinant soluble aromatic prenyltransferase, SEQ ID NO: 37 (protein)
chain: MDEVYAAVEQTSRLLDVPCSPDRFEPVWKAFGDQLPDSHLVFSMAAGEAHRGELDFDFSLRPEGADPYTTALEHGFIEPTDHPVGSVLAEVGKRFAIASYGVEYGVVGGFKKSYAFFPLDDFPPLAQFAEVPSVPPCLAGHVETLTRLGFDDKVSIIGVNYRKNTLNVYLAASAVDTGDKLALLRAFGYPEPDARVRQFIERSFRLYPTFNWDSSAAERICFAVHTQQPGELPAPHDEPTEAFARQVPHVYEGGREFVSGVALAPSGASYYKLAALYQKARRCLH
modifications: APT73.74 (mutant soluble aromatic prenyltransferase)
In test [1], B1 gave a CBGVA of 10 ± 0 µM and an FCBGVA of 0 ± 0 µM. In addition, in test [2], the CBGA came to 123 ± 5 µM, the FCBGA worked out at 18 ± 1 µM and the CBGA/FCB worked out at 6.7. In addition, the “selectivity (CBGA/FCBGA)” value in test [2] (setting [8]) is reported as “better selectivity”.

B2: APT73.77: recombinant soluble aromatic prenyltransferase, SEQ ID NO: 38 (protein)
chain: B1 chain with H285D
modifications: APT73.77 (mutant soluble aromatic prenyltransferase)
In test [1], B2 showed a CBGVA of 10 ± 1 µM and an FCBGVA of 1 ± 1 µM. Besides, the CBGVA/FCBGVA in test [1] (product ratio) was 12.5. Also, in test [3] (setting [9]), the CBGA worked out at 215 ± 11 µM and the FCBGA was 32 ± 1 µM. Further, the CBGA/FCBG in test [3] (olivetolic acid feed, 48 h quench, product ratio) amounted to 6.8. In test [2], the CBGA amounted to 145 ± 13 µM, the FCBGA is 55 ± 3 µM and the CBGA/FCB turned out to be 2.6. Also, the “overall activity (CBGA+FCBGA)” value in test [2] (setting [8]) was “better overall activity”.

B3: MPT4.1 (protein)
chain: MSDNSIATKILNFGHTCWKLQRPYAVKGMISIACGLFGRELFNNRHLFSWGLMWKAFFALVPILSFNFFAAIMNQIYDVDIDRINKPDLPLVSGEMSIETAWILSIIVALTGLIVTIKLKSAPLFVFIYIFGIFAGFAYSVPPIRWKQYPFTNFLITISSHVGLAFTSYSATTSALGLPFVWRPAFSFIIAFMTVMGMTIAFAKDISDIEGDAKYGVSTVATKLGARNMTFVVSGVLLLNYLVSISIGIIWPQVFKSNIMILSHAILAFCLIFQTRELALANYASAPSRQFFEFIWLLYYAEYFVYVFI
modifications: MPT4.1 (point mutant, membrane-bound prenyltransferase)
In the case of B3, in test [1], the CBGVA turned out to be 28 ± 8 µM and the FCBGVA was found to be 0 ± 0 µM. For the same molecule, in test [4] (6% glucose, strain sCL-SE-0128), the CBGA worked out at 253 ± 18 µM and the FCBGA came to 26 ± 2 µM. Moreover, the CBGA/FCBGA in test [4] (product ratio) was determined as 9.7. Moreover, in test [2], the CBGA turned out to be 168 ± 33 µM, the FCBGA was 11 ± 2 µM and the CBGA/FCB worked out at 14.6. Further, in test [2] (in words, OA feed, 48 h), the “FCBGA byproduct compared to MPT4” value is given as “less FCBGA byproduct” and the “activity towards CBGA formation compared to MPT4” value is recorded as “increased activity towards CBGA formation”.

B4: MPT4: membrane-bound prenyltransferase, SEQ ID NO: 2, comparator (protein)
chain: B3 chain with A25V
modifications: MPT4 (membrane-bound prenyltransferase)
As to B4, the CBGA in test [5] (2% glucose, strain sCL-SE-0128) amounted to 123 ± 13 µM; in test [2] it was 123 ± 13 µM; in test [7] (setting [10]), 230 ± 15 µM. In addition, the FCBGA in test [5] (2% glucose, strain sCL-SE-0128) stood at 23 ± 2 µM; in test [2], 23 ± 2 µM; in test [7] (setting [10]), 51 ± 1 µM. The figures for the CBGA/FCBGA in test [5] (product ratio) and in test [7] (product ratio) were 5.3 and 4.5, respectively. Besides, the CBGVA in test [1] and in test [6] was 19 ± 2 µM throughout. The FCBGVA in test [1] and in test [6] was 0 ± 0 µM each time. Moreover, the CBGA/FCB in test [2] worked out at 5.3.
